In patent publication US20230381316A1 (published 2023):
Substitutions are numbered along the chain they refer to.

B1: J591 (antibody, V domains shown)
VH: EVQLQQSGPELVKPGTSVRISCKTSGYTFTEYTIHWVKQSHGKSLEWIGNINPNNGGTTYNQKFEDKATLTVDKSSSTAYMELRSLTSEDSAVYYCAAGWNFDYWGQGTTLTVSS
VL: DIVMTQSHKFMSTSVGDRVSIICKASQDVGTAVDWYQQKPGQSPKLLIYWASTRHTGVPDRFTGSGSGTDFTLTITNVQSEDLADYFCQQYNSYPLTFGAGTMLDLK
B2: anti-PSMA mouse monoclonal antibody #219 (antibody, V domains shown)
VH: VQLQQSGPELEKPGASVKMSCKASGYSFTGYNVNWVRQNNGKSLEWIGNIDPLHGGTTYNQKFKAKATLTVDRSSSTAYLQLKNLTSEDSAVYYCARSSRFDYWGQGTTLTVSS
VL: DIVMTQSHKFMSTSVGDRVNITCKASQDVGTAVAWYQQKPGQSPKLLIYWASTRHTGVPDRFTGSGSGTDFTLTISNVQSEDLADYFCHQFTSYPFTFGSGTSLEMKR
B3: anti-PSMA mouse monoclonal antibody #1352 (antibody, V domains shown)
VH: B2 VH with Q2K, M19I, R37K, N39S, L53Y, K64E, R73K, L80M, N84S
VL: B2 VL with L46F, F91Y, S103K
B4: anti-PSMA mouse monoclonal antibody #1366 (antibody, V domains shown)
VH: VKLQESGPGLVAPSQSLSITCTVSGFSLTDYGVSWIRQPPGKGLEWLGVIWSDGNTYYNSPLKSRLSINKDNSKSQVFLKMNSLQTDDSAMYYCARHKVYTMDYWGQGTSVTVSS
VL: TVLTQSPAIMSASPGEKVTMTCRASSSVSSSYLHWYQQKSSASPKLWIYRTSNLASGVPARFSGSGSGTSYSLTISSLEAEDAATYYCQQYSGYPLTFGAGTKLELKR
B5: anti-PSMA mouse monoclonal antibody #1207 (antibody, V domains shown)
VH: VKLQQSGPGLVKPSQSLSLTCAVTGYSITSDYAWNWIRKFPGNKLEWMGYISYSGRTTYNPSLESRISITRDTSKNQFFLQLNSVTTEDTATYYCARCYYGSSSRWYGMDYWGRGTSVAVSS
VL: B4 VL with T1I, E16V, S29D, S41G, K45Q, L46V, R50S, L78V, A100G, L106I
B6: anti-PSMA mouse monoclonal antibody #1377 (antibody, V domains shown)
VH: VQLQQPGAALVRPGASVRLSCKASGYSFTYYWMNWVMQRPGQGLEWIGMIHPSDSETRLSQKFRDKATLTVDKSSSTVYMQLNSPTSDDSAVYYCARDGNFPYYALDYWGQGTSVTVSS
VL: DVVLTQAPLSLPVSLGDQASISCRSSQSLEYSNGNTYLHWYLQKPGQSPELLIYTVSNRFSGVPDRFSGSGSGTDFTLKIHRVEAEDLGVYFCSQSTHVPTFGGGTKLEIKR
B7: ScFv Fc 444 (antibody, V domains shown)
VH: B2 VH
VL: B2 VL
B8: ScFv Fc 446 (antibody, V domains shown)
VH: B4 VH
VL: B4 VL
B9: ScFv Fc 445 (antibody)
chain: VQLQQPGAALVRPGASVRLSCKASGYSFTYYWMNWVMQRPGQGLEWIGMIHPSDSETRLSQKFRDKATLTVDKSSSTVYMQLNSPTSDDSAVYYCARDGNFPYYALDYWGQGTSVTVSSGGGGSGGGGSGGGGSDVVLTQAPLSLPVSLGDQASISCRSSQSLEYSNGNTYLHWYLQKPGQSPELLIYTVSNRFSGVPDRFSGSGSGTDFTLKIHRVEAEDLGVYFCSQSTHVPTFGGGTKLEIKR

What follows are binders tested against PSMA (assay: previously reported; previously reported value).

| Binder | Kd [nM] |
| --- | --- |
| B1 | 1.83 |

What follows are binders tested against T1, purified recombinant human PSMA protein (PSMA extracellular domain, baculovirus-insect cell expression) (UniProt Q04609 44-750) (assay: SPR (Biacore)).
T1 sequence (Q04609 44-750): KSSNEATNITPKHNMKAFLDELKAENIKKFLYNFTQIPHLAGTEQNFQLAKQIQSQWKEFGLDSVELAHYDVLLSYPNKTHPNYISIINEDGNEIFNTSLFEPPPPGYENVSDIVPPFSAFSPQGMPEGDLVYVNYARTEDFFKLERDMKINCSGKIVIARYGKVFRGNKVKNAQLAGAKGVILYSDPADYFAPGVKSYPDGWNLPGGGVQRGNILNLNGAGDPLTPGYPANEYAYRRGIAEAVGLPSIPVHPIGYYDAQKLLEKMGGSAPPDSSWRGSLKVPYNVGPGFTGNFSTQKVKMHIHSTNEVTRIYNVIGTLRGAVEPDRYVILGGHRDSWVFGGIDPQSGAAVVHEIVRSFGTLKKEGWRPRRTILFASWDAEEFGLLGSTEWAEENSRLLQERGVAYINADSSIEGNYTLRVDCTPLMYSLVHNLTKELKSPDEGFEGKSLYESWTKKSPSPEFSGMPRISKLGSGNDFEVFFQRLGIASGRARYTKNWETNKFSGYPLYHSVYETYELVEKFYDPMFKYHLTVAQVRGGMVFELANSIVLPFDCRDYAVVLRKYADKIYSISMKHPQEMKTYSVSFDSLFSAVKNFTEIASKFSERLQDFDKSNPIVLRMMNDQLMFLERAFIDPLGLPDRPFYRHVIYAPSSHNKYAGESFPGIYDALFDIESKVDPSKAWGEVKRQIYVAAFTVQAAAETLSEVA

| Binder | Kd [nM] |
| --- | --- |
| B2 | 2.64 |
| B3 | 1.99 |
| B4 | 295 |
| B5 | 8.13 |
| B6 | 18.6 |

The binders below were run against T1, purified recombinant human PSMA protein … (assay: SPR (Biacore); Langmuir fit).

| Binder | Kd [nM] |
| --- | --- |
| B2 | 2.64 |

The binders below were run against T1, purified recombinant human PSMA protein … (assay: SPR (Biacore); Bivalent fit).

| Binder | Kd [nM] |
| --- | --- |
| B7 | 4.35 |
| B3 | 1.99 |
| B8 | 1160 |
| B4 | 295 |
| B5 | 8.13 |
| B9 | 2.55 |
| B6 | 18.6 |
